Data from the RNAGym collection of RNA variant scans (doi:10.7554/elife.90254).

B1: LINE1-mini (parent)
chain: GGCAGAGCUCAACACAGCGUGGCAAAGUGGCUGUGGCUAGACUGCC

Variants of: B1
Assay: self-cleavage, relative activity (ratio to wild type); higher = more cleavage; in vitro, sequencing; the parent is a self-cleaving ribozyme

Variant	self-cleavage
C15G G27C	0.05
C15G G27U	0.04
C15G G27A	0.05
C15G G21C	0.17
C15G G21A	0.08
C15G G21U	0.07
C15G C23A	0.06
C15G C23G	0.12
C15G C23U	0.08
C15G A16C	0.11
C15G A16G	0.05
C15G A16U	0.05
C15G A25G	0.06
C15G A25U	0.04
C15G A25C	0.02
C15G U20C	0.03
C15G U20A	0.09
C15G U20G	0.03
C15G C18U	0.04
C15G C18G	0.05
C15G C18A	0.09
C15U C18A	0.09
C15U C18U	0.47
C15U C18G	0.07

Variant	self-cleavage
C15U A25C	1
C15U A25G	0.17
C15U A25U	0.77
C15G C45U	0.05
C15G C45A	0.02
C15G C45G	0.08
C15U G22U	0.78
C15U G22C	0.53
C15U G22A	1.21
C15U A24C	0.25
C15U A24U	0.32
C15U A24G	1.53
C15G A24C	0.02
C15G A24G	0.03
C15G A24U	0.02
C15G G35A	0.04
C15G G35U	0.03
C15G G35C	0.13
C15U A39C	0.18
C15U A39G	0.11
C15U A39U	0.72
C15G U43G	0
C15G U43C	0.03
C15G U43A	0.02

Variant	self-cleavage
C15U C31U	0.09
C15U C31G	0.06
C15U C31A	0.06
C15U C46U	0.43
C15U C46G	0.33
C15U C46A	0.92
C15A U43C	0.04
C15A U43A	0.07
C15A U43G	0.07
C15G A41U	0.06
C15G A41G	0.04
C15G A41C	0.04
C15G	0.07
C15U	1.03
C15U C45U	0.79
C15U C45A	0.21
C15U C45G	0.2
C15U A16U	0.1
C15U A16C	0.13
C15U A16G	0.42
C15A U20G	0.08
C15U G29A	1.1
C15U G29C	1.59
C15G G36A	0.06

Variant	self-cleavage
C15G G36C	0.03
C15G G36U	0.04
C15G G30C	0.08
C15G G30U	0.03
C15G G30A	0.07
C15U G19A	0.98
C15U G19U	0.87
C15U G19C	1.39
C15U A41G	0.25
C15U A41U	0.33
C15U A41C	0.08
C15G U38G	0.03
C15G U38A	0.03
C15G U38C	0.03
C15G G22A	0.15
C15G G22U	0.3
C15G G22C	0.03
C15G U32C	0.03
C15G U32A	0.05
C15G U32G	0.04
C15G G29U	0.06
C15G G29A	0.09
C15G G29C	0.1
C15G G19U	0.03

Variant	self-cleavage
C15G G19A	0.07
C15G G19C	0.13
C15U G21U	1.46
C15U G21C	1.81
C15U G21A	1.23
C15A U38A	0.05
C15A U38G	0.07
C15A U38C	0.07
C15U C37A	0.11
C15U C37G	0.08
C15U C37U	0.11
C15G G44A	0.03
C15G G44U	0.03
C15G G44C	0.04
C15G C42U	0.04
C15G C42G	0.1
C15G C42A	0.04
C15G A39G	0.03
C15G A39U	0.04
C15G A39C	0.02
C15A U32G	0.06
C15A U32C	0.07
C15A U32A	0.06
C15G C31A	0.02

Variant	self-cleavage
C15G C31U	0.04
C15G C31G	0.03
C15U C42A	0.08
C15U C42U	0.11
C15U C42G	0.09
C15U G17A	0.07
C15U G17C	0.19
C15U G17U	0.11
C15G G17C	0.04
C15G G17U	0.05
C15G G17A	0.05
C15U G27U	1.36
C15U G27C	0.87
C15U G27A	1.41
C15A U28G	0.06
C15A U28C	0.12
C15A U28A	0.1
C15U C23A	2.82
C15U C23G	0.81
C15U C23U	1.91
C15G C37G	0.02
C15G C37A	0.06
C15G C37U	0.04
C15G U34A	0.52

Variant	self-cleavage
C15G U34G	0.02
C15G U34C	0.03
C15G G33C	0.25
C15G G33U	0.36
C15G G33A	0.03
C15G U28G	0.04
C15G U28A	0.04
C15G U28C	0.04
C15G G40U	0.09
C15G G40A	0.08
C15G G40C	0.03
C15U A26C	1.74
C15U A26U	0.74
C15U A26G	0.88
C15G A26U	0.07
C15G A26C	0.04
C15G A26G	0.03
C15A U34G	0.05
C15A U34A	0.59
C15A U34C	0.06
C15G C46U	0.06
C15G C46G	0.03
C15G C46A	0.11
